Test results reported in paper PMC5715344, “Structural enzymology comparisons of multifunctional enzyme, type‐1 (MFE1): the flexibility of its dehydrogenase part” (FEBS Open Bio, 2017).

Experiments:
Assay in all cases: purified protein
Format in all cases: biochemical, Rattus norvegicus
purified protein [1] = substrate: C/C=C/C(=O)SCCNC(=O)CCNC(=O)[C@H](O)C(C)(C)COP(=O)(O)OP(=O)(O)OC[C@H]1O[C@@H](n2cnc3c(N)ncnc32)[C@H](O)[C@@H]1OP(=O)(O)O; details: 50 mM Tris pH 9.0, 50 mM KCl, BSA, 25 °C, hydratase site
purified protein [2] = substrate: CC(=O)CC(=O)SCCNC(=O)CCNC(=O)[C@H](O)C(C)(C)COP(=O)(O)OP(=O)(O)OC[C@H]1O[C@@H](n2cnc3c(N)ncnc32)[C@H](O)[C@@H]1OP(=O)(O)O; details: 0.1 mM NADH, 50 mM Tris/HCl pH 7.0, 50 mM KCl, BSA, 25 °C, dehydrogenase site
purified protein [3] = substrate: C[C@H](O)CC(=O)SCCNC(=O)CCNC(=O)[C@H](O)C(C)(C)COP(=O)(O)OP(=O)(O)OC[C@H]1O[C@@H](n2cnc3c(N)ncnc32)[C@H](O)[C@@H]1OP(=O)(O)O; details: 1 mM NAD+, 50 mM Tris pH 9.0, 50 mM KCl, BSA, 25 °C, dehydrogenase site, substrate generated in situ from 2E-butenoyl-CoA by the enzyme's own hydratase site

B1: rat peroxisomal multifunctional enzyme, type-1 (rpMFE1) (Rattus norvegicus) (protein)
chain: MAEYLRLPHSLAMIRLCNPPVNAVSPTVIREVRNGLQKAGSDHTVKAIVICGANGNFCAGADIHGFSAFTPGLALGSLVDEIQRYQKPVLAAIQGVALGGGLELALGCHYRIANAKARVGLPEVTLGILPGARGTQLLPRVVGVPVALDLITSGKYLSADEALRLGILDAVVKSDPVEEAIKFAQKIIDKPIEPRRIFNKPVPSLPNMDSVFAEAIAKVRKQYPGVLAPETCVRSIQASVKHPYEVGIKEEEKLFMYLRASGQAKALQYAFFAEKSANKWSTPSGASWKTASAQPVSSVGVLGLGTMGRGIAISFARVGISVVAVESDPKQLDAAKKIITFTLEKEASRAHQNGQASAKPKLRFSSSTKELSTVDLVVEAVFEDMNLKKKVFAELSALCKPGAFLCTNTSALNVDDIASSTDRPQLVIGTHFFSPAHVMRLLEVIPSRYSSPTTIATVMSLSKKIGKIGVVVGNCYGFVGNRMLAPYYNQGFFLLEEGSKPEDVDGVLEEFGFKMGPFRVSDLAGLDVGWKIRKGQGLTGPSLPPGTPVRKRGNSRYSPLGDMLCEAGRFGQKTGKGWYQYDKPLGRIHKPDPWLSTFLSQYREVHHIEQRTISKEEILERCLYSLINEAFRILEEGMAARPEHIDVIYLHGYGWPRHKGGPMFYAASVGLPTVLEKLQKYYRQNPDIPQLEPSDYLRRLVAQGSPPLKEWQSLAGPHGSKL
notes: full length, 722 residues, pET15b recombinant; crystal model of molecule A starts at residue -4 (N-terminal vector/tag residues present); monomer
Purified protein [1]
  Km: 82.0 ± 18.0 µM
  kcat: 113 ± 33 s⁻¹
  kcat/Km: 1.4e+06 M⁻¹ s⁻¹
Purified protein [2]
  Km: 44.0 ± 15.0 µM
  kcat: 23 ± 2.3 s⁻¹
  kcat/Km: 500000 M⁻¹ s⁻¹
Purified protein [3]
  Km: 3.6 ± 1.0 µM
  kcat: 1.7 ± 0.1 s⁻¹
  kcat/Km: 500000 M⁻¹ s⁻¹
